The record followed here is patent publication US20230303711A1.

The assay concerns the target Fc-tagged human CD47-ECD protein (CD47-Fc) (human). In words: ELISA on coated human CD47-Fc; row printed as Affinity (µg/mL).

Sequence of Fc-tagged human CD47-ECD protein (CD47-Fc) (human) (chain, as listed by the source limits assumed): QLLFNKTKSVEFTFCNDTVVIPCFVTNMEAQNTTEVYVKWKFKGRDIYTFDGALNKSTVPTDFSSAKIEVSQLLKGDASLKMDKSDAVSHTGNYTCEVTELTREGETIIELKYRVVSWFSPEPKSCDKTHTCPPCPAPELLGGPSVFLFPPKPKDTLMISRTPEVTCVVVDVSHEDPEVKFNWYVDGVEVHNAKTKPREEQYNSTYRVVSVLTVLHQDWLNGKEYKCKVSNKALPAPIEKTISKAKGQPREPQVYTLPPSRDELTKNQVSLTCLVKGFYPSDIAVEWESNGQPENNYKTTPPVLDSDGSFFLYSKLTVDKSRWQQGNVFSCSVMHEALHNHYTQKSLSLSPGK

B1: Antibody 17 (antibody, human IgG1, kappa, V domains shown)
VH: QVQLQESGPGLVKPSETLSLTCTVSGGSLDNYYWSWIRQPPGKGLEWIGYIYYSGNTNYNPSLKSRVTISVDTSKNQFSLRLRSVTAADTAVYYCARGGRFLERYWGQGTLVTVSS
VL: DIQMTQSPSSVSASVGDRVTISCRANQAIGTWLAWYQQKPGKAPKLLIYAASTLQSGVPSRFSGSGSGTEFTLTISSLQAEDVAVYYCQQYYTTPLTFGGGTKLEIKR
Molecule B1 yielded an EC50 of 0.088 µg/mL.
